Target: T1, BZR1 (Arabidopsis thaliana, UniProt Q8S307)
T1 construct: expressed in transfected cells; host or cells: Nicotiana benthamiana leaves (Agrobacterium infiltration)
T1 sequence (Q8S307 1-336): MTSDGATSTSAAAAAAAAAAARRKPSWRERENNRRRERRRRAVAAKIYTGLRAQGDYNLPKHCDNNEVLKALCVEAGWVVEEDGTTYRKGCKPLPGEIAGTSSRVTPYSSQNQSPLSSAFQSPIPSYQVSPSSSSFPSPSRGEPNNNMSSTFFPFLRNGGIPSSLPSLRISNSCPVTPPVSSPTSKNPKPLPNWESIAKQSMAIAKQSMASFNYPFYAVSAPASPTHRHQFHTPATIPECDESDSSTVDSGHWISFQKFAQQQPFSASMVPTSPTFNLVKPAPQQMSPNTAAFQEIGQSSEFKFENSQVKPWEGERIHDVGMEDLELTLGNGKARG
Assay: BiFC interaction with BZR1 in Nicotiana benthamiana leaves
Type: cell-based
Details: fully expanded leaves, co-expressed with cYFP-BZR1
From the text: The binary BiFC-Gateway YFP vectors pDEST-VYNE(R)^GW (Venus aa 1-173) and pDEST-VYCE(R)^GW (Venus aa 156-239) with N-terminal fusions, were used to construct the following vectors; pDESTnYFP-BZR1, pDESTnYFP-NINJA, pDESTnYFP-PPD1, pDESTcYFP-BZR1, pDESTcYFP-PPD1, pDESTcYFP-PPD1Δppd, pDESTcYFP-PPD1Δtify and pDESTcYFP-PPD1Δjas*. For transient in planta expression of proteins interacting with PPD1 or BZR, NINJA and TPL were Gateway® sub-cloned into pRSh1, to construct pRSh1-NINJA and pRSh1-TPL. Plasmids for co-immunoprecipitation: A synthesised DNA construct encoding PPD1 with a 3×c-myc C-terminal fusion was sub-cloned into pRSh1 to produce pRSh1-PPD1-3×c-myc, while the NINJA cDNA sequence was sub-cloned into pB7FWG2,0 (Karimi et al 2002, Trends Plant Sci. 7, 193-195) to construct pB7FWG2-NINJA-GFP. When expressed these constructs produced proteins listed in sequences 60, 62, 70 71 72 73 74 75 76 77 78 79: including TOPLESS (TPL), NINJA, Bimolecular Fluorescence (BiFC) nYFP, BiFC cYFP, BiFC nYFP-NINJA, BiFC nYFP-BZR1, BiFC cYFP-PPD1, BiFC cYFP-NINJA, BiFC cYFP-BZR1, BiFC cYFP-PPD1-ppd, BiFC cYFP-PPD1-tify, BiFC cYFP-PPD1-jas*.
Transient BiFC experiments were performed using combinations of pDESTnYFP and pDESTcYFP plasmids, with or without plasmids for the expression of NINJA (pRSh1-NINJA) or TPL (pRSh1-TPL) and Agrobacterium-infiltration of Nicotiana benthamiana leaves. For infiltration Agrobacterium tumefaciens GV3101 strains containing the binary vectors were re-suspended from plates and prepared for transformation as described for the LUC assay. All YFP and expression strains were mixed in ratios of 1:1 (vol/vol) with the addition of strain P19 at 1/10th volume. Five leaf discs were sampled from each infiltrated leaf after 40 h. Two hours prior to sampling for microscopic fluorescence observations leaves were infiltrated with a 1 μg/ml DAPI solution to stain nuclei. YFP fluorescence and DAPI staining was detected using an Olympus Fluoview FV10i confocal laser scanning microscope. Each experiment was repeated twice.

- interaction with BZR1: no interaction was observed
Substance: nYFP-PPD1: BiFC fusion of PPD1 with the N-terminal Venus YFP fragment
